T1: Sudan Gulu glycoprotein (NC_006432.1) expressed on MDCK-SIAT1 cells (Sudan Gulu (SUDV), UniProt Q7T9D9 33-676)
T1 sequence: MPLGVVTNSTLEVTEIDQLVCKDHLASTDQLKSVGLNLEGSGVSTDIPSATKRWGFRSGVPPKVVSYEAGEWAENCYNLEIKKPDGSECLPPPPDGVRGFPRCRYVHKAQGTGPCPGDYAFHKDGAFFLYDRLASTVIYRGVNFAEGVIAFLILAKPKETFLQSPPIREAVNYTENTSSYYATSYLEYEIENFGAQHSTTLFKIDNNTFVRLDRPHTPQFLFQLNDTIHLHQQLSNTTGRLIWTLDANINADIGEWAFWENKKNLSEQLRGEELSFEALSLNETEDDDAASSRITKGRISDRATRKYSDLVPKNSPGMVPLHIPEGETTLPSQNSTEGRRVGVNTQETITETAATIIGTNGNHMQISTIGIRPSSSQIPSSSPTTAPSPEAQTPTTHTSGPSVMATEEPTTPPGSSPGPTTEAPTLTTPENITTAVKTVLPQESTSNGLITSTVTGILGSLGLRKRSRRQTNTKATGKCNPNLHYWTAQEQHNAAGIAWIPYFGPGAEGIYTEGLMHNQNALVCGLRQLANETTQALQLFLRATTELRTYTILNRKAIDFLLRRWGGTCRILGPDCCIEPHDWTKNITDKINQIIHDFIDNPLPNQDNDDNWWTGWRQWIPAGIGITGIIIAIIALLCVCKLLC

B1: 6541 (antibody, V domains shown)
VH: EVQLVQWGAGLLKPSETLSLTCAVYGGSFSGNYWTWIRQPPGKGLEWIGEINHSGSTNYNPSLKSRVTISVDTSKNQFSLKLSSVTAADTAVYYCATKMGGYGDYWHWYFDLWGRGTMVTVSS
VL: EVVMTQSPATLSVSPGERATLSCRASQSLFTNLAWYQQKPGQAPRLLIYGASTRATGIPARFSGSGSGTDFSLTISRLQSEDFAFYYCQQYNDWPLTFGGGTKVDIKR
B2: 040 (antibody, V domains shown)
VH: QVQLVESGGGFVQPGGSLRLSCAASGFTFSSYAMSWVRQAPGKGLEWVSTISGSGGTTYYADSVKGRFTISRDNSKNTLYLEMITLRAEDTATYFCANSYYYHSSGLLIRWDDMDVWGQGTTVTVSS
VL: DIQMTQSPSSLSASVGDRVTITCRASQGIRNDLGWYQQKPGKAPKRLIYAASSLQSGVPSRFSGSGSGTEFTLTISSLQPEDFATYYCLQHSSYPWTFGQGTKVEIKR
B3: 66-3-9C (antibody, V domains shown)
VH: EVQLVESGGGLVKPGGSLRLSCAASGFTFSSYNMNWVRQAPGKGLEWVSSITTSSSYIYYAYSVKGRFTISRDNAKNSLYLQMNSLRAEDTAVYYCARFLGYSYGTNYYYYGMDVWGQGTTVTVSS
VL: not shown
B4: 6662 (antibody, V domains shown)
VH: EVQLVESGGGLVKPGGSLRLSCAASGFGFSSAWMNWVRQAPGKGLEWVGRIKSKTDGGKTDYAAPVKGRFIMSRDDSKNTLYLQMNSLKTEDAGVYYCTTRIVLNGMDVWGQGTLVTVSS
VL: QSVLTQPPSVSGAPGQRVTISCTGSSSNIGAGYDVHWYQQLPGTAPKLLIYANNNRPSGVPDRFSGSKSGTSASLAITGLQAEDEADYYCQSYDSRLSDGVVFGGGTKLTVLG

Each binder was assayed against T1, Sudan Gulu glycoprotein (NC_006432.1) … (assay: indirect immunofluorescence by FACS on MDCK-SIAT1 cells expressing GP).
B1: binds. B2: binds. B3: binds. B4: binds.

From patent WO2020148554A1 (dated 2020)
